From patent US20130165328, “APPARATUS AND METHODS FOR KINETIC ANALYSIS AND DETERMINATION OF NUCLEIC ACID SEQUENCES” (ILLUMINA, INC., published 2013)

B1: 19/36 mer primer/template duplex (FAM-labelled) (dsDNA)
DNA 1: GCTTGCACAGGGCCTCGAC
DNA 2: CGTTAGTAAGGTCGAGGCCCTGTGCAAGC

What was measured:
[1] = target: KlenTaq polymerase (UniProt P19821 P19821:280-832); assay: stopped-flow observed k1; 600 nM enzyme, 100 uM dGTP, 50 mM NaCl, 2 mM MgCl2, pH 7.5; conditions: label: 6-FAM on internal T; hairpin
Protocol: The pre-steady kinetic analysis of Klenow or KlenTaq polymerase for incorporating the cognate nucleotide (dGTP) was monitored following the mixing of 6-carboxyfluorescein (6-FAM) dye label hairpin-DNA template with the enzyme (600 nM) and nucleotide (100 μM) in a reaction buffer containing 50 mM Tris-HCl, pH 7.5, 300 mM NaCl (or 50 mM NaCl in the KlenTaq reaction), 0.5 mM Dithiothreitol and 5 mM MgCl₂ (or 2 mM MgCl₂ in the KlentTaq reaction) in an Applied Photophysics SX20 stopped-flow spectrometer. The 6-FAM hairpin-DNA template was: 5′-[…].[…](6-FAM) CGAG-3′ (SEQ ID NO: 5).

[2] = target: BSU DNA polymerase I (Bacillus subtilis, UniProt O34996 O34996:1-880, second Ser after 6xHis tag replaced by Cys (in tag)); assay: stopped-flow fluorescein quenching; correct dCTP signal rises and mismatch dATP signal falls with NaCl 62.5-375 mM; 10 mM MgSO4; conditions: label: fluorescein-dT in primer, 5 bases from incorporation site; primer/template with 5' template overhang
From the text: Theoretically, it was possible to use an enzyme simulation that predicts the feasibility of correct vs. mismatch base discrimination using enzyme-DNA binding kinetics. […] Rapid mixing is generally achieved using a fast delivery and mixing system to minimize the contribution of the diffusion constants to the overall access of the polymerase to the DNA templates. To determine the validity of the theoretical predictions for base discrimination based on DNA binding kinetics, correct (dCTP) and mismatch (dATP) nucleotides were rapidly mixed with BSU polymerase and FAM labeled 19/36 mer in the presence of various NaCl concentrations with a stopped flow instrument. Pre-steady state correct and mismatch nucleotide kinetic responses of polymerase/DNA binding were made by monitoring the extent of induced fluorescence quenching response. Correct and mismatch nucleotide responses were determined from the stopped flow kinetic raw traces (FIG. 23). The traces were normalized and the maximum fluorescence change was determined and subsequently, correlated with the extent of synchronized enzyme-DNA binding. As [NaCl] was increased and the nucleotide concentration was held constant, the fluorescence change for the correct nucleotide (leftmost bar in each pair of bars in FIG. 24B) was increased, while the response for the mismatch (rightmost bar in each pair of bars in FIG. 24B) was decreased. […]

Chain of KlenTaq polymerase (P19821 280-832, one chain of several): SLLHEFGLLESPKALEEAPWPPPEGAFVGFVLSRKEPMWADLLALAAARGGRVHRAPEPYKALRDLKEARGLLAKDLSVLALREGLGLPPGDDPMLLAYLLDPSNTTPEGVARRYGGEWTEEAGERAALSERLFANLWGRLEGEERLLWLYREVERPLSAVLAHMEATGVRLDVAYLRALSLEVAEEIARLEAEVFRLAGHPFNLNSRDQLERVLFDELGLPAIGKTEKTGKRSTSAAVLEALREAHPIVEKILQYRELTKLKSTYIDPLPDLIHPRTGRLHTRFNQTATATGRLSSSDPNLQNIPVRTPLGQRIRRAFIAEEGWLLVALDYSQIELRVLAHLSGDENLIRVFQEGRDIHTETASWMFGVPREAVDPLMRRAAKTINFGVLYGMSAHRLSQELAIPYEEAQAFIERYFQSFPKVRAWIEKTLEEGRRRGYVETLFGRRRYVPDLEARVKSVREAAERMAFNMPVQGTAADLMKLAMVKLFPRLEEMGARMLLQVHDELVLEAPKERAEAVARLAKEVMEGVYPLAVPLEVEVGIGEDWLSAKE

Row | Binder | binding result [1] | binding result [2]
1 | CGTTAGTAACCTCGAGGCAACTTAGCCTCGAG (structured_DNA) [6-FAM hairpin-DNA template] | binds | –
2 | B1 | – | binds
